Experimental findings from paper PMC12473205, “Characterization of the Soybean GPAT Gene Family Identifies GmGPAT1 as a Key Protein in Salt Stress Tolerance” (Plants, 2025) are described below.

Substrate in this data set: O=P(O)(O)OC[C@H](O)CO
Put plainly: purified protein. The class given is biochemical, Glycine max. The conditions noted are these: 0.1 M phosphate buffer pH 7.2, acyl-CoA co-substrate not named, methods text mentions membrane protein, conclusions print 36.5 mmol L^-1.

B1: GmGPAT1 (Glycine max) (protein)
chain: MSTTGSSAYHCVAHLPNNKTMFMLSTPPTTTFFATPRVLPFLSSKLSSSSSSSTASSSPCCSSITPKVKSKDNNNCYLVSAKHSPANMSASVSSRTFLNARNEQELLAGIRKEVEAGSLPANVAAGMEEVYNNYKSAVIQSGDPKSKEIVLSNMIALLDRIFLDVTDPFVFQPHHKAKREPFDYYVFGQNYIRPLVDFKNSYVGNMPLFIEMEEKLKQGHNIILMSNHQTEADPAIIALLLETRLPYIAENMTYVAGDRVITDPLSKPFSIGRNLICVYSKKHMLDDPALVEMKRNANIRALKEMAMLLRSGSQIVWIAPSGGRDRPDPHTGEWAPAPFDTSSVDNMRRLVEHSGPPGHVYPLAILCHDIMPPPLKVEKEIGEKRIISFHGTGISVAPALSFSETTATSENPEKAKEVFTKALYDSVTEQYNVLKSAIHGKKGFEASTPVVSLSQSWK
By Km is commonly meant the substrate concentration at which the rate is half of its maximum. With B1, the Km was 36.47 mM.
